Here are results for three molecules from patent US20240101684A1 (AIMED BIO, published 2024).

Changes are numbered by the printed parent chain.

Experiment [1] concerns the target T1, human FGFR3 IIIb recombinant protein (1264-FR-050, R&D) (human, UniProt P22607-2 23-377).
T1 construct: Bought recombinant antigen; also called rhFGFR3-IIIb; FGFR3-IIIb (Human)
T1 sequence (looked up): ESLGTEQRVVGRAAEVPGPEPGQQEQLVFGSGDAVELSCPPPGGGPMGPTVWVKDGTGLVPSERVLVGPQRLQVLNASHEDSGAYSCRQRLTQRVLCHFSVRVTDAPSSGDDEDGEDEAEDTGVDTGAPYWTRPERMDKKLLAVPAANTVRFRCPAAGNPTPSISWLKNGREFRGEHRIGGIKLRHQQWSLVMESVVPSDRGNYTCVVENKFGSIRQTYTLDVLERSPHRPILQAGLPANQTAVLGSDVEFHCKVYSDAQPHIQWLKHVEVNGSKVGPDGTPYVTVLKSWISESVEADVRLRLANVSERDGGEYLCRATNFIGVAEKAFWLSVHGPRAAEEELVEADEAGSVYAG
Nature of the experiment: SPR, table under the sensorgrams, column KD, row FGFR3-IIIb Human; unit inferred.

The target in experiment [2] is T2, FGFR3 Ig domain II with Fc tag (UniProt P22607 151-244).
T2 construct: domain: FGFR3 Ig domain II; Recombinant domain made in mammalian cells; also called domain No. 2
T2 sequence: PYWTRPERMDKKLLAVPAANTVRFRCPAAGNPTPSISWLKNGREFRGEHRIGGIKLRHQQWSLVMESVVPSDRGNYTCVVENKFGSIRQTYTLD
The experiment can be described thus: FGFR3 Domain ELISA, AMB302#1, bar Domain#2. As to the method:
(§1) FGFR3 is composed of three domains, so each domain (FGFR3 Ig domain I, domain II, domain III) is attached with an Fc tag to analyze the FGFR3-binding domain of the discovered antibody, and produced and purified through a mammalian cell protein expression system (FIG. 9C). Analysis of the binding ability of the antibody to the purified domain was performed in the same manner as the ELISA described above. 1 μg/ml of an antigen was coated and treated with the antibody to induce a TMB color reaction. […] However, the epitope of the comparative antibody is included in domain No. 2, which was conducted according to the present invention. In addition, ligands of FGF1 and FGF9, and FGFR3 have been reported to bind to Ig domain II and domain III of FGFR3. Based on this, competition ELISA assay was conducted. […] This supports binding of F309 antibody to the aforementioned FGFR3 Ig domain I (FIG. 9A).
(§2) The epitope domain mapping performed above was also performed on the affinity matured antibody F309 #SSM236 (hereinafter referred to as AMB302 #1.2). […] The antibody was also found to have specific binding ability to human/cyno FGFR3 (FIG. 17).
Background: ELISA stands for enzyme-linked immunosorbent assay.

In experiment [3] the target is T1, human FGFR3 IIIb recombinant protein …. Nature of the experiment: direct-binding ELISA on rhFGFR3-IIIb, 2' screening, plate 2 (row head prints IC50); 2' screening, Plate2.
Experiment [4] has as its target T3, human FGFR3 IIIc recombinant protein (766-FR-050, R&D) (human, UniProt P22607 23-375).
T3 construct: Bought recombinant antigen; also called FGFR3-IIIc (Human)
T3 sequence (looked up): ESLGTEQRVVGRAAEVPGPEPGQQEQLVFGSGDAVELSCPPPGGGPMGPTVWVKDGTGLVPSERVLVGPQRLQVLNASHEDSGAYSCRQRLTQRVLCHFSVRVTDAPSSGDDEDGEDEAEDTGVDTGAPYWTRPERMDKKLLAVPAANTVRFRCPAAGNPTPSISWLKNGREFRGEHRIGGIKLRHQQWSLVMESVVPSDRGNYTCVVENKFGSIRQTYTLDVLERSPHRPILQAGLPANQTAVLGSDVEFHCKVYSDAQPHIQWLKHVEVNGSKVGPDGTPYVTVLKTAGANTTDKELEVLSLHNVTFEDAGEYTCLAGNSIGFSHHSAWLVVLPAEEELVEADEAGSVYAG
Nature of the experiment: SPR, table under the sensorgrams, column KD, row FGFR3-IIIc Human; unit inferred.

Experiment [5] has as its target T4, Domain#3 (human, UniProt P22607).
T4 construct: single domain fused to human IgG1 Fc; also called FGFR3 Domain 3; FGFR3 Ig domain III with Fc tag
T4 sequence (Fc fusion chain): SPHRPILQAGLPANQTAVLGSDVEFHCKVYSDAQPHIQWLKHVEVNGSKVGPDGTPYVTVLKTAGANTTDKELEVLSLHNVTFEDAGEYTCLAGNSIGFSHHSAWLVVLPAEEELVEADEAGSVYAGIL
The experiment can be described thus: ELISA on Fc-tagged FGFR3 constructs (FGFR3 domain mapping), bar Domain#3. As to the method:
(§3) Affinity ELISA was performed to determine the binding ability of the produced antibody (IgG) to the FGFR3 antigen. A 96-well plate (4° C., overnight) was coated with […] of FGFR3 antigen and blocked with 3% skim milk (PBS) (room temperature, 1 hour). Then, the plate was treated with previously serially diluted antibody samples in duplicate and triplicate, and reacted at room temperature for 1 hour. Then, the result was washed with PBST 2 to 3 times, treated with the HRP-conjugated anti-human Fab antibody diluted in skim milk (room temperature, 1 hour), and washed again with PBST, and a color reaction (TMB substrate) was performed. Then, O.D. was measured at 450 nm.
FGFR3 is composed of three domains, so each domain (FGFR3 Ig domain I, domain II, domain III) is attached with an Fc tag to analyze the FGFR3-binding domain of the discovered antibody, and produced and purified through a mammalian cell protein expression system (FIG. 9C). Analysis of the binding ability of the antibody to the purified domain was performed in the same manner as the ELISA described above. 1 μg/ml of an antigen was coated and treated with the antibody to induce a TMB color reaction. […] However, the epitope of the comparative antibody is included in domain No. 2, which was conducted according to the present invention. […]

Experiment [6] has as its target T5, monkey FGFR3 recombinant protein (90313-C02H, Sino Biological) (cynomolgus monkey, UniProt A0A2K5V1U5 23-376).
T5 construct: Bought recombinant antigen; also called cynomolgus monkey FGFR3; cyno FGFR3
T5 sequence: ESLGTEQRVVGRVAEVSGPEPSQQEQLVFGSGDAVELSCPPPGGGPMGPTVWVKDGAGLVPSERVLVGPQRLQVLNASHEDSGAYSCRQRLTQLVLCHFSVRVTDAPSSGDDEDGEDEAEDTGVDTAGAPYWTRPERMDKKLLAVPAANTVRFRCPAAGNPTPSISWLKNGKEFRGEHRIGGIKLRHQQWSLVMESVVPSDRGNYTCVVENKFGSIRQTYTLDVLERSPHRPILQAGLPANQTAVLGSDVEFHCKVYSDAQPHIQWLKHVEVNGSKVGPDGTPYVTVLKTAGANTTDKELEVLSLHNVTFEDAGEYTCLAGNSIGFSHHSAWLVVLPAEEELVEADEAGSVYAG
Nature of the experiment: SPR, table under the sensorgrams, column KD, row FGFR3 Monkey; unit inferred.

The target of experiment [7] is T1, human FGFR3 IIIb recombinant protein …. The experiment can be described thus: direct-binding ELISA on rhFGFR3-IIIb, 2' screening, plate 1 (row head prints IC50).
For experiment [8] the target is unchanged. The experiment can be described thus: direct-binding ELISA on rhFGFR3-IIIb, 1' screening (row head prints IC50).
Experiment [9] has as its target T5, monkey FGFR3 recombinant protein …. Nature of the experiment: ELISA on cynoFGFR3. As to the method:
as §3
(§4) The binding ability of the produced antibody (IgG) to human FGFR3 IIIb (1264-FR-050, R&D), IIIc (766-FR-050, R&D), mouse FGFR3 (9089-FR, R&D), and monkey FGFR3 (90313-C02H, Sino Biological) antigens was determined in the same manner as above.
as §2

For experiment [10], the target named is T2, FGFR3 Ig domain II with Fc tag. Nature of the experiment: FGFR3 Domain ELISA, AMB302#1.2, bar Domain#2. The procedure: as §1, §2
Experiment [11] deals with T5, monkey FGFR3 recombinant protein …. The experiment can be described thus: SPR (Biacore), antigen immobilised 92 RU, antibody injected. (In general: Surface plasmon resonance follows binding to a sensor surface in real time, without labels.)
The target of experiment [12] is T1, human FGFR3 IIIb recombinant protein …. The experiment can be described thus: SPR (Biacore), antigen immobilised 276.2 RU, antibody injected.
The target of experiment [13] is T4, Domain#3. Nature of the experiment: FGFR3 Domain ELISA, AMB302#1.2, bar Domain#3. The procedure:
as §1, §2

Experiment [14] addresses T3, human FGFR3 IIIc recombinant protein …. Nature of the experiment: SPR (Biacore), antigen immobilised 74.5 RU, antibody injected.
For experiment [15], the target named is T6, FGFR3 recombinant protein (isoform not given) (Homo sapiens (Human), UniProt P22607 23-375, limits assumed).
T6 construct: also called FGFR3 antigen
T6 sequence: T3 sequence (looked up)
The experiment can be described thus: affinity ELISA on hFGFR3, lower left panel. As to the method: as §3
The antigen affinity of the synthesized ADC sample (TOPOI-conjugated ADC) was determined by ELISA and the determination was performed in the same manner as the affinity ELISA performed in the present invention. […] In addition, the high purity physical properties of the prepared ADC were identified through SEC-HPLC analysis.

In experiment [16] the target is T3, human FGFR3 IIIc recombinant protein …. The experiment can be described thus: ELISA on humanFGFR3-IIIc. The procedure: as §3, §4, §2
The target in experiment [17] is T1, human FGFR3 IIIb recombinant protein …. Nature of the experiment: direct-binding ELISA on rhFGFR3-IIIb, 1' screening (row head prints IC50); 1' screening.

In general, Kd refers to a measure of binding affinity in units of concentration. In general, EC50 refers to the concentration at which the effect is half-maximal. The EC50 (read off the curve) is the concentration at which the effect is half-maximal.

B1: F309 (antibody, V domains shown)
VH: EVQLLESGGGLVQPGGSLRLSCAASGFTFSSYDMSWVRQAPGKGLEWVSGIYSGDGSIYYADSVKGRFTISRDNSKNTLYLQMNSLRAEDTAVYYCAKDAPTNEMSRFDYWGQGTLVTVSS
VL: QSVLTQPPSASGTPGQRVTISCSGSSSNIGNNYVSWYQQLPGTAPKLLIYADSKRPSGVPDRFSGSKSGTSASLAISGLRSEDEADYYCASWDYSLSGYVFGGGTKLTVL
notes: also called F309 antibody; F309 clone
For the molecule B1, the Kd in experiment [1] worked out at 10.4 nM; in experiment [4], 11.1 nM; in [6], 32.8 nM. For the same molecule, the binding result (in experiment [2]; with Domain#3 [5]) was “no binding” each time. For the same molecule, the half-maximal effective concentration (EC50) is 67 nM in [3], 80.4 nM in [7] and 0.67 nM in experiment [8].

B2: F309#SSM236 (antibody, V domains shown)
VH: B1 VH with A100G, T102M, M105E
VL: B1 VL
notes: also called AMB302 #1.2; AMB302#1.2
B2: the “EC50 (read off the curve)” value was roughly 0.3 nM in experiment [9], roughly 0.4 nM in [15] and roughly 0.3 nM in experiment [16]. For the same molecule, the binding result (in [10]; in the experiment with Domain#3 [13]) was “no binding” each time. Moreover, the Kd in experiment [11] was 0.755 nM; in experiment [12], 0.59 nM; in experiment [14], 0.309 nM. For the same molecule, the EC50 in [7] stood at 0.753 nM.

B3: F309#SSM001 (antibody, V domains shown)
VH: B1 VH with A100Y
VL: B1 VL
Take B3: the EC50 in experiment [17] came to 2190 nM.
